From IntAct's records for PubMed 22949657

B1: Tumor necrosis factor alpha-induced protein 8-like protein 2 (Homo sapiens), Q6P589 (parent)
chain: MESFSSKSLALQAEKKLLSKMAGRSVAHLFIDETSSEVLDELYRVSKEYTHSRPQAQRVIKDLIKVAIKVAVLHRNGSFGPSELALATRFRQKLRQGAMTALSFGEVDFTFEAAVLAGLLTECRDVLLELVEHHLTPKSHGRIRHVFDHFSDPGLLTALYGPDFTQHLGKICDGLRKLLDEGKL

Variants of: B1
Settings: with RAC1, P63000-1

Variant	effect of a mutation on the interaction
MESFSSKSLALQAEKKLLSKMAGASVAHLFIDETSSEVLDELYRVSKEYTHSRPQAQRVIKDLIKVAIKVAVLHRNGSFGPSELALATRFRQKLRQGAMTALSFGEVDFTFEAAVLAGLLTECRDVLLELVEHHLTPKSHGRIRHVFDHFSDPGLLTALYGPDFTQHLGKICDGLRKLLDEGKL [R24A]	disrupting interaction strength
MESFSSKSLALQAEQQLLSKMAGRSVAHLFIDETSSEVLDELYRVSKEYTHSRPQAQRVIKDLIKVAIKVAVLHRNGSFGPSELALATRFRQKLRQGAMTALSFGEVDFTFEAAVLAGLLTECRDVLLELVEHHLTPKSHGRIRHVFDHFSDPGLLTALYGPDFTQHLGKICDGLRKLLDEGKL [K15Q;K16Q]	decreasing interaction strength
